Test results from paper doi:10.1101/2021.10.29.466484, “Clamping of DNA shuts the condensin neck gate” (bioRxiv, 2021).

How the values were obtained:
Ycs4 = target: T1, Ycs4 (S. cerevisiae, UniProt Q06156 1-1176); assay: cryo-EM structure; condensin pentamer with relaxed circular DNA, ADP and BeF3; VPP and non-VPP datasets merged; maps at 8.75 and 8.95 Å; conditions: both partners purified
T1 construct: Ycs4, HAWK subunit of budding yeast (S. cerevisiae) condensin, wild type
T1 sequence: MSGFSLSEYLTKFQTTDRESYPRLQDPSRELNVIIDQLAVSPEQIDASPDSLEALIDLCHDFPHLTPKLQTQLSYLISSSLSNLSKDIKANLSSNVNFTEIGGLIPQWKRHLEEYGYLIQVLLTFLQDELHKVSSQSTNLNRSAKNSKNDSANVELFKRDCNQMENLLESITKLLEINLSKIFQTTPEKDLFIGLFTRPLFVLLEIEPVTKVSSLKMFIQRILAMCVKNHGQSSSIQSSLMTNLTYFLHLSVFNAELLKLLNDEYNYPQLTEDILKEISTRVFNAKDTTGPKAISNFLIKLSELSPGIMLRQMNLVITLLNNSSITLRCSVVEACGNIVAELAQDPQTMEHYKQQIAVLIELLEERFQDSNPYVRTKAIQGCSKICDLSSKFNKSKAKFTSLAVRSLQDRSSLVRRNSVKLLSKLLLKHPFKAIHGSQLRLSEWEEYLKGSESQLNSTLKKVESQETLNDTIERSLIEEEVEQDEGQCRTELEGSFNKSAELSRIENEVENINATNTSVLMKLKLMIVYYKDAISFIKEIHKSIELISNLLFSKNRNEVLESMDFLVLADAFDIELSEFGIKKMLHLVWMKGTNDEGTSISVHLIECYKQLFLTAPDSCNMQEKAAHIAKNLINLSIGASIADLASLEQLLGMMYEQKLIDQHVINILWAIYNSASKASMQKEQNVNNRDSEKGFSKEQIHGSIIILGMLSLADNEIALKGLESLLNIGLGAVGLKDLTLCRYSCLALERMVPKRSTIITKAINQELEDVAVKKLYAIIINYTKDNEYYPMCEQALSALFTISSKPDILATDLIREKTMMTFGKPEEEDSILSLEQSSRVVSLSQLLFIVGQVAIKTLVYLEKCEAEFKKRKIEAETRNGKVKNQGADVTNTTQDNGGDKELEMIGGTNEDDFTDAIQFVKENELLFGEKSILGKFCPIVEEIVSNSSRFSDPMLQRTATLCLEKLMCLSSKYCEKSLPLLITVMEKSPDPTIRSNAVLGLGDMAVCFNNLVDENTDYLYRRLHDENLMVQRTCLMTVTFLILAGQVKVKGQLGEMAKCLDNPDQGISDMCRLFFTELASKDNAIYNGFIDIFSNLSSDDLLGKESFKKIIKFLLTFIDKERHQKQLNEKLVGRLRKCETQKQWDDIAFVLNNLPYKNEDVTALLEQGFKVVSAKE

Smc2 = target: T2, Smc2 (S. cerevisiae, UniProt P38989 1-1170); assay: as above; conditions: both partners purified
T2 construct: Smc2, SMC subunit of budding yeast (S. cerevisiae) condensin, wild type; Expressed from pGAL10-SMC2 together with the other subunits; Only the head domain and proximal coiled coil are resolved in the maps
T2 sequence: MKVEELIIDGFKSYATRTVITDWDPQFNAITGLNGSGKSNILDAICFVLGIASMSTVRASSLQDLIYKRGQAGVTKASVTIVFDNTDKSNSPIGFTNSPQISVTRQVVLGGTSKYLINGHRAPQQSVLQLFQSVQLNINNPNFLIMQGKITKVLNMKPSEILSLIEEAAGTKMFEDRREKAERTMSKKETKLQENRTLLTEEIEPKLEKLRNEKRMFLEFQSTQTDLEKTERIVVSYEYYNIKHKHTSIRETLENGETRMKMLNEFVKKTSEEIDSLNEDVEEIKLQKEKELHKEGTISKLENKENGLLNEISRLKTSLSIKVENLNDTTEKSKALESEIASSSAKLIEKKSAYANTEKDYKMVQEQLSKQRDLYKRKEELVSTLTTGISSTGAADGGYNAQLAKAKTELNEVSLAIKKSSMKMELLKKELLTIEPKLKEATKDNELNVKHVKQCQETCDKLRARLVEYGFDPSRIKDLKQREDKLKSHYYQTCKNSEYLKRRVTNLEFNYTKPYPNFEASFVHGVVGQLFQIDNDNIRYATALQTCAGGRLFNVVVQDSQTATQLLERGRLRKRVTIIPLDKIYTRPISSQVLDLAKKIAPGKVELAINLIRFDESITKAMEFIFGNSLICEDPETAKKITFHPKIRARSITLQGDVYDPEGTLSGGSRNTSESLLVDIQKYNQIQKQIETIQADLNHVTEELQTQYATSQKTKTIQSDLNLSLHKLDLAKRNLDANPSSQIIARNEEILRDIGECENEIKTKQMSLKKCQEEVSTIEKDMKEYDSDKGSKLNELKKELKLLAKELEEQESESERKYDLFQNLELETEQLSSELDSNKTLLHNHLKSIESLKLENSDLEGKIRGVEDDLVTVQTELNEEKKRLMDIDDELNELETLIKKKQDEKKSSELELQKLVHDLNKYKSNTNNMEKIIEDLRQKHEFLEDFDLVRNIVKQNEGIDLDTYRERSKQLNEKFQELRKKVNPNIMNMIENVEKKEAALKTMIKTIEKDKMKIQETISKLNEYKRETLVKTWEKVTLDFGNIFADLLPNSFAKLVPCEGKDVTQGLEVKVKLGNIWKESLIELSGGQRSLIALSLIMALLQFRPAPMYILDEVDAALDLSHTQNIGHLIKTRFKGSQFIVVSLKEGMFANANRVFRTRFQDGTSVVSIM

B1: Brn1 (natural protein, S. cerevisiae)
chain: MTTQLRYENNDDDERVEYNLFTNRSTMMANFEEWIKMATDNKINSRNSWNFALIDYFYDLDVLKDGENNINFQKASATLDGCIKIYSSRVDSVTTETGKLLSGLAQRKTNGASNGDDSNGGNGEGLGGDSDEANIEIDPLTGMPISNDPDVNNTRRRVYNRVLETTLVEFETIKMKELDQELIIDPLFKKALVDFDEGGAKSLLLNTLNIDNTARVIFDASIKDTQNVGQGKLQRKEEELIERDSLVDDENEPSQSLISTRNDSTVNDSVISAPSMEDEILSLGMDFIKFDQIAVCEISGSIEQLRNVVEDINQAKDFIENVNNRFDNFLTEEELQAAVPDNAEDDSDGFDMGMQQELCYPDENHDNTSHDEQDDDNVNSTTGSIFEKDLMAYFDENLNRNWRGREHWKVRNFKKANLVNKESDLLEETRTTIGDTTDKNTTDDKSMDTKKKHKQKKVLEIDFFKTDDSFEDKVFASKGRTKIDMPIKNRKNDTHYLLPDDFHFSTDRITRLFIKPGQKMSLFSHRKHTRGDVSSGLFEKSTVSANHSNNDIPTIADEHFWADNYERKEQEEKEKEQSKEVGDVVGGALDNPFEDDMDGVDFNQAFEGTDDNEEASVKLDLQDDEDHKFPIRENKVTYSRVSKKVDVRRLKKNVWRSINNLIQEHDSRKNREQSSNDSETHTEDESTKELKFSDIIQGISKMYSDDTLKDISTSFCFICLLHLANEHGLQITHTENYNDLIVNYEDLATTQAAS
notes: Brn1, kleisin subunit of budding yeast (S. cerevisiae) condensin, wild type; also called kleisin Brn1; BRN1-HA3-His12
binding result (Ycs4): binds | binding result (Smc2): binds
